Measurements published in patent US20170342144A1 (Sanofi, published 2017).
Positions count from the first letter of the chain named.

T1: human TGFβ3 (human, UniProt P10600 301-412)
T1 sequence: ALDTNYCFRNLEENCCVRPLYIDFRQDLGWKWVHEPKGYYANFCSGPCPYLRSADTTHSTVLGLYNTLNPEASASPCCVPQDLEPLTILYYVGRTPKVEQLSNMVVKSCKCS

T2: human TGFβ2 (human, UniProt P61812 303-414)
T2 construct: also called TGFβ2 homodimer
T2 sequence: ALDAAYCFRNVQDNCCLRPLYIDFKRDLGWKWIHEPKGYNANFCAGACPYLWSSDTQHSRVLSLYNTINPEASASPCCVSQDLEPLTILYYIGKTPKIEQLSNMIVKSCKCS

B1: GC1008 (antibody, human IgG4, V domains shown)
VH: QVQLVQSGAEVKKPGSSVKVSCKASGYTFSSNVISWVRQAPGQGLEWMGGVIPIVDIANYAQRFKGRVTITADESTSTTYMELSSLRSEDTAVYYCASTLGLVLDAMDYWGQGTLVTVSS
VL: ETVLTQSPGTLSLSPGERATLSCRASQSLGSSYLAWYQQKPGQAPRLLIYGASSRAPGIPDRFSGSGSGTDFTLTISRLEPEDFAVYYCQQYADSPITFGQGTRLEIK
notes: also called GC1008 antibody; wild-type control
B2: I54N (antibody, V domains shown)
VH: B1 VH with I54N
VL: B1 VL
notes: GC1008 IgG4 variant
B3: I54R (antibody, V domains shown)
VH: B1 VH with I54R
VL: B1 VL
notes: GC1008 IgG4 variant

Columns and labels:
[1] = biological target: T3, human TGFβ1 (human, UniProt P01137 279-390); assay: cell-based or functional assay
T3 construct: also called TGFβ1 homodimer

[2] = biological target: T1, human TGFβ3; assay: SPR (Biacore 3000), TGFβ3 amine-coupled to the chip, GC1008 IgG as analyte, 1:1 model, average of more than 25 assays
Method: (§1) Additionally, the TGFβ isoform binding affinity of the GC1008 antibody was measured using a Biacore® 3000 (GE Healthcare) instrument. TGFβ1 and TGFβ2, produced in-house, were diluted to ˜1 μg/mL in 10 mM acetate, pH 4.5, and TGFβ3 (R&D Systems) was diluted to ˜2 μg/mL in 10 mM acetate, pH 4.0. Flowcells 2, 3, and 4 of a CMS sensor chip were covalently immobilized with 50 to 100 RU of TGFβ1, TGFβ2, and TGFβ3, respectively, using the standard amine coupling kit from GE Healthcare. Flowcell 1 was used as a control surface. […] The surface was regenerated with two 30 sec injections of 40 mM HCl at 75 μL/min. The sensorgrams were fit using a 1:1 binding model after subtraction of buffer and control flowcell refractive index changes with the BIA Evaluation Software Kit (GE Healthcare). The KD's shown in TABLE 6 are an average of more than 25 independent assays.

[3] = biological target: T3, human TGFβ1; assay: SPR (Biacore 3000), TGFβ1 amine-coupled to the chip, GC1008 IgG as analyte, 1:1 model, average of more than 25 assays
Method: as §1

[4] = biological target: T2, human TGFβ2; assay: SPR (Biacore 3000), TGFβ2 amine-coupled to the chip, GC1008 IgG as analyte, 1:1 model, average of more than 25 assays
Method: as §1

[5] = biological target: T2, human TGFβ2; assay: Biacore, top 2 concentrations only (90, 30 nM), 1:1 global fit, vs wt GC1008
Method: (§2) In FIG. 6C, seventeen mutants were selected and scaled up to produce sufficient amount of purified protein for KD (equilibrium constant=kd/ka) analysis by Biacore. Multiple concentrations (90, 30, 10 and 3.33 nM) were used in duplicate on the 150 RU level TGFβ1, 2, and 3 immobilized surfaces. KD was calculated using global curve fitting analysis for a 1-to-1 Langmuir binding model. The experimental data from all four concentrations were used for calculation except for I54N and I54R mutants, where only the top 2 concentrations were used. The fold changes in KD were compared to the fold changes in kd (off rate) presented in FIG. 6B, and a heat map was generated for visualization. Similar fold changes were observed from the two data sets, confirming the validity of using kd as a parameter for screening of 155 single mutants as shown in FIG. 6B.

[6] = biological target: T1, human TGFβ3; assay: as above
Method: as §2

[7] = biological target: T3, human TGFβ1; assay: as above
Method: as §2

[8] = biological target: T2, human TGFβ2; assay: Biacore off-rate vs wt GC1008, 50 nM
Method in brief: (§3)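 Surface plasmon resonance on a Biacore 3000 measured how fast purified antibody variants dissociated from TGFβ isoforms immobilized at about 100 RU. Variants carried single heavy- or light-chain substitutions and were produced by transient Expi293F transfection with Protein A cleanup. Samples at 50 nM were tested in duplicate, and each variant kd was divided by the wild-type control kd to give fold change.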

[9] = biological target: T1, human TGFβ3; assay: Biacore off-rate vs wt GC1008, 50 nM
Method in brief: as §3

[10] = biological target: T3, human TGFβ1; assay: Biacore off-rate vs wt GC1008, 50 nM
Method in brief: as §3

[11] = biological target: T2, human TGFβ2; assay: Biacore off-rate vs wt GC1008
Description: (§4) Plasmids encoding either the GC1008 heavy chain or light chain were used as a template in PCR-based mutagenesis reactions. Mutations to the encoding DNA were made to create 155 single amino acid substitutions of the encoded heavy chain amino acid sequence and one single amino acid substitution of the encoded light chain amino acid sequence. A QuikChange® Lightning Site-Directed Mutagenesis kit (Agilent Technologies, Santa Clara Calif.) was used according to the manufacturer's instructions to create DNA mutations using a set of forward and reverse primers, either designed for a specific amino acid or for all 20 amino acids with a degenerate codon (NNK). After sequencing confirmation, identified mutant DNA was paired with a wild-type light or heavy chain DNA for transfection into an Expi293F™ host cell suspension (Life Techonologies Corp., Grand Island, N.Y.). At 4 days post-transfection, conditioned media (1 mL) was harvested and purified using a 1 mL Protein A PhyTip® column (PhyNexus, Inc., San Jose, Calif.) and a PureSpeed™ 12-channel pipette (Rainin Instrument LLC, Oakland, Calif.). Purified variant antibody samples were analyzed in duplicate on a Biacore® 3000 (GE Healthcare) at 50 nM concentrations, using the 100 RU level TGFβ1, 2, and 3 immobilized surfaces. The off-rate (kd) of the variants was divided by the kd of the wild-type control to obtain the fold change in the kd. […] A heat map was generated to visualize the results. Variants that completely lost affinity for TGFβ were shown in red without numbers.

[12] = biological target: T1, human TGFβ3; assay: Biacore off-rate vs wt GC1008
Description: as §4

[13] = biological target: T3, human TGFβ1; assay: Biacore off-rate vs wt GC1008
Description: as §4

T3 sequence (P01137 279-390 limits assumed): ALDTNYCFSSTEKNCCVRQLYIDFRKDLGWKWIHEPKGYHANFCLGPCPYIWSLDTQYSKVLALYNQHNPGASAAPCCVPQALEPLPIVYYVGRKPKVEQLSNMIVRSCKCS

Molecule	% neutralization in MLEC proliferation assay at 91 pM antibody [1] [%]	Kd [2] [nM]	Kd [3] [nM]	Kd [4] [nM]	KD mutant/KD wt [5]	KD mutant/KD wt [6]	KD mutant/KD wt [7]	kd var/kd wt [8]	kd var/kd wt [9]	kd var/kd wt [10]	kd mutant/kd wt [11]	kd mutant/kd wt [12]	kd mutant/kd wt [13]
1D11.16 (antibody)	12	–	–	–	–	–	–	–	–	–	–	–	–
B1	–	2	1.7	3	–	–	–	–	–	–	–	–	–
B2	–	–	–	–	4.5	13.1	7	2.4	4.3	4.9	2.4	4.3	4.9
B3	–	–	–	–	5.3	11.4	11	5.2	4.8	7.6	5.2	4.8	7.6
